In general, Kd refers to the equilibrium constant for the complex coming apart. Low values mean higher affinity, high ones lower affinity.

In the test the target is complement C1q (human, UniProt P02745;P02746;P02747). As to the kind of experiment: MST.
Sequence of complement C1q (P02745 23-245, chain 1 of 3): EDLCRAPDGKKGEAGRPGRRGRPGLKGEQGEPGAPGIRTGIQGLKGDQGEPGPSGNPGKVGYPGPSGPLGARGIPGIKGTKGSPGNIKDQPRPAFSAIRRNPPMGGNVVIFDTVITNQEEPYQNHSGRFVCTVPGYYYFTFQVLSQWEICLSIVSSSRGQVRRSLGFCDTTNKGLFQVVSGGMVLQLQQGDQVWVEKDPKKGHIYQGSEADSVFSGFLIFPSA
Sequence of complement C1q (P02746 28-253, chain 2 of 3): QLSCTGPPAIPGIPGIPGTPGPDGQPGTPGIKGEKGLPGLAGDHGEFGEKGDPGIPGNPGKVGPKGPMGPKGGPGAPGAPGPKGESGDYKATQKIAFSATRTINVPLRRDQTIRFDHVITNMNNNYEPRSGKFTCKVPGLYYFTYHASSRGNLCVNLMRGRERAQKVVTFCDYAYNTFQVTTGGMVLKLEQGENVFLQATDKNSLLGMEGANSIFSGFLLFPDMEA
Sequence of complement C1q (P02747 29-245, chain 3 of 3): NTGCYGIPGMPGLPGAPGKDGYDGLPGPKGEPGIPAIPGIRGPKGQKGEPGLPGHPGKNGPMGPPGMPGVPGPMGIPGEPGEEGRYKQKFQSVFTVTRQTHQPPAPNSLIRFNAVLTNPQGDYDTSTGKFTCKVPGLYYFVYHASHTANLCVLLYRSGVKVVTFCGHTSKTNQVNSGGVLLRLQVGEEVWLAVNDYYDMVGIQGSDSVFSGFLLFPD

B1: TsCRT^Δ mutant Y132A/N158A (domain or fragment)
chain: EPTIYLKETFDDGDAWKERWVQSKHKDDYGEWQLSHGKLFADENDMGLKTMQDARFYSLSRKFDKVVDNKDKPLVIVYTVKHEQDIDCGGGYIKLMLENTDLEDFNSDTPARIMFGPDICGPEKRAVHSILWHDGKAYEKRKNAIAMADIFTHAYKLIIFPNNSYEIWVNNDKEAYGRLEDDWTMTEPGSGPVPELYRYKGLGAIGFELWQVKSGTIFDNILITDDPEYAKEFIDKQLEALRPIEKVESDK
modifications: fluorescent label RED-NHS (MO-L011 Monolith Protein Labelling Kit) in the MST assays; chain labelled not stated | fluorescent label RED-NHS (MO-L011 Monolith Protein Labelling Kit) in the MST assays; chain labelled not stated | fluorescent label RED-NHS (MO-L011 Monolith Protein Labelling Kit) in the MST assays; chain labelled not stated
For B1, binding was characterised by a dissociation constant (Kd) of 8.89 µM.

These data come from publication PMC11059001 (2024).
